Reference: patent publication US20220213181A1 (Novartis, published 2022)

How the values were obtained:
[1] = biological target: T1, Rat ANGPTL4(24-405)-FLAG-His6-Avi (rat, UniProt Q6TMA8 24-405, biotin on the C-terminal Avi tag (BirA) where the protein is immobilised); experiment: Octet (ForteBio) kinetics; average KD of the runs; Octet kinetics; average KD of the three rat runs
T1 sequence: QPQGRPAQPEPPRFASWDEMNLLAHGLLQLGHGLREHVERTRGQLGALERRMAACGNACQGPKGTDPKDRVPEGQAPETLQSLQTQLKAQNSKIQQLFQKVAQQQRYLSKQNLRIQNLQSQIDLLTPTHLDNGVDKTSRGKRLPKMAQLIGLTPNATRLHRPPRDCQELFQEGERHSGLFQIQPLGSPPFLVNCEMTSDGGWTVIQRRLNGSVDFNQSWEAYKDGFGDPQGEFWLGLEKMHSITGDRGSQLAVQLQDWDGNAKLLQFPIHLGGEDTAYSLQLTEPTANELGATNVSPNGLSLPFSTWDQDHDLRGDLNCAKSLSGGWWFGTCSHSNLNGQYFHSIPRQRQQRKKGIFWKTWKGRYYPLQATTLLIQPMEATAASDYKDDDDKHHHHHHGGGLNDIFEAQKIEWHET

[2] = biological target: T2, Mouse ANGPTL4(26-410)-FLAG-His6-Avi (mouse, UniProt Q9Z1P8 24-410, biotin on the C-terminal Avi tag (BirA) where the protein is immobilised); experiment: Octet (ForteBio) kinetics; average KD of the runs; Octet kinetics; average KD of the two mouse runs
T2 sequence: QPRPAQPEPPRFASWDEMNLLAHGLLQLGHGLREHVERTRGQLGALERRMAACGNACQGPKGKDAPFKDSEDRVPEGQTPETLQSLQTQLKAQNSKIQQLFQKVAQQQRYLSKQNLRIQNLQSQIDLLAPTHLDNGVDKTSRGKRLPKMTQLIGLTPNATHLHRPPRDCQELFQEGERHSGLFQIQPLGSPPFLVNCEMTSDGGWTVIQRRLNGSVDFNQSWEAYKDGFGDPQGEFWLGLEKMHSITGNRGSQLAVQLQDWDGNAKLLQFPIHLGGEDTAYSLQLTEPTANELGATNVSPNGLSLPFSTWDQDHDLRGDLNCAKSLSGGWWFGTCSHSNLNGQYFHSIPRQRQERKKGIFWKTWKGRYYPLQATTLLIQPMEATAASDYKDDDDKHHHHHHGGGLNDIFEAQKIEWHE

[3] = biological target: T1, Rat ANGPTL4(24-405)-FLAG-His6-Avi; experiment: Octet (ForteBio) kinetics, biotinylated antigen on streptavidin sensor, IgG in solution; Octet kinetics, rat ANGPTL4 on the sensor, antibody up to 25 nM; run 1
[4] = biological target: T2, Mouse ANGPTL4(26-410)-FLAG-His6-Avi; experiment: Octet (ForteBio) kinetics, biotinylated antigen on streptavidin sensor, IgG in solution; Octet kinetics, mouse ANGPTL4 on the sensor, antibody up to 25 nM; run 1
[5] = biological target: T2, Mouse ANGPTL4(26-410)-FLAG-His6-Avi; experiment: Octet (ForteBio) kinetics, biotinylated antigen on streptavidin sensor, IgG in solution; Octet kinetics, mouse ANGPTL4 on the sensor, antibody up to 25 nM; run 2
[6] = biological target: T3, Human ANGPTL4(26-406)-FLAG-His6-Avi (human, UniProt Q9BY76 24-406, biotin on the C-terminal Avi tag (BirA) where the protein is immobilised); experiment: Octet (ForteBio) kinetics, biotinylated antigen on streptavidin sensor, IgG in solution; slower than the limit of detection (about 5e-6 s^-1)
T3 construct: the text calls it 20 amino acids), then QP, ANGPTL4 26-406 and FLAG-His6-Avi; the signal peptide is left out here; also called full length human ANGPTL4; hANGPTL4
T3 sequence: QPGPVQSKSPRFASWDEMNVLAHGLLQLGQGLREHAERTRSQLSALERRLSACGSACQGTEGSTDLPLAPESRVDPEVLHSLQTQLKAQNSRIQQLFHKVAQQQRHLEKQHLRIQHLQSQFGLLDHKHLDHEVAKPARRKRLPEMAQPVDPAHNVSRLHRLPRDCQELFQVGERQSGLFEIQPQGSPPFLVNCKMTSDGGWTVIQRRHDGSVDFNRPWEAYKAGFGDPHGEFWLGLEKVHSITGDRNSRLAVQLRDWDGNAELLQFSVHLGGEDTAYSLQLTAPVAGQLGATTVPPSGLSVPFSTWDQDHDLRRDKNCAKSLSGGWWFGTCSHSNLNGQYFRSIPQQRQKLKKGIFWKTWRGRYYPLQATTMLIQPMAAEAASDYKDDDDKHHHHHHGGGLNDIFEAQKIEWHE
Method: Dissociation constants (KD) were determined for selected antibodies of the invention by using an Octet (ForteBio) kinetic binding assay. ForteBio 10× Kinetics Buffer (ForteBio, catalog number 18-5032) was diluted 10-fold with DPBS (Life Technologies, catalog number 14190-136), and the resulting solution was added (0.2 ml per well) to a 96-well plate (Greiner, catalog number 65520). Streptavidin sensors (ForteBio, catalog number 18-5020) were immersed in the solution and equilibrated for at least 10 min at room temperature. In a second 96-well plate (Greiner, catalog number 65520), sensors were washed in 1× Kinetics buffer, and then immersed in 200 ul of 25 nM biotinylated human ANGPTL4 or a biotinylated reference protein (for background subtraction) for 1000 sec at […] room temperature. […] The sensors were then transferred to a well containing 200 μl 1× Kinetics buffer, and antibody dissociation was monitored for 1200 seconds. Background-corrected association and dissociation curves were globally fitted by Octet Software (ForteBio) to generate association (kₐ) and dissociation (kd) rate constants, which in turn were used to calculate equilibrium dissociation constants (KD).

B1: NEG276-LALA (antibody, human IgG1, kappa, L234A L235A)
heavy: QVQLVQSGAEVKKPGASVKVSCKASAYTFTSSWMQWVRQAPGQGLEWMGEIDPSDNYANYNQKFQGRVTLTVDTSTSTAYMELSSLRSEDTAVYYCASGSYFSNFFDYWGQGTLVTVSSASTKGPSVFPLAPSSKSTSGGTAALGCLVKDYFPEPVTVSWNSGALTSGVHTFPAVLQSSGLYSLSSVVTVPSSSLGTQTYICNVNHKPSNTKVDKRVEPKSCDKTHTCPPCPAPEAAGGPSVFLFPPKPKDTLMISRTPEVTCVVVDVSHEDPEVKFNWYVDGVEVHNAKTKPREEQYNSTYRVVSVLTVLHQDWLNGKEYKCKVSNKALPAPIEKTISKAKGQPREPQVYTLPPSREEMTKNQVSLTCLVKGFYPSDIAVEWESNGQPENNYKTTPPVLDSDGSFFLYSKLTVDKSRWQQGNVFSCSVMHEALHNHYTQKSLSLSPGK
light: EIVMTQSPATLSVSPGERATLSCKASQDIGSNLNWLQQKPGQAPRRLIYAVSNRGPGIPARFSGSRSGSEYTLTISSLQSEDFAVYYCLQYASSPWTFGQGTKVEIKRTVAAPSVFIFPPSDEQLKSGTASVVCLLNNFYPREAKVQWKVDNALQSGNSQESVTEQDSKDSTYSLSSTLTLSKADYEKHKVYACEVTHQGLSSPVTKSFNRGEC
Work on B1 yielded a Kd [1] of 6.34 nM, a Kd [2] of 6.2 nM and a Kd [3] of 7.47 nM. It also gave a koff [3] of 0.0012 s⁻¹, a kon [3] of 160000 M⁻¹ s⁻¹ and a Kd [4] of 8.25 nM. It also gave a koff [4] of 0.0029 s⁻¹, a kon [4] of 360000 M⁻¹ s⁻¹ and a koff [5] of 0.0018 s⁻¹. The kon [5] was 430000 M⁻¹ s⁻¹.

B2: NEG278 (antibody, human IgG1, kappa, V domains shown)
VH: QVQLVQSGAEVKKPGASVKVSCKASAYTFTSSWMQWVRQAPGQGLEWMGEIDPSDNYANYNQKFQGRVTLTVDTSTSTAYMELSSLRSEDTAVYYCASGSYFSNFFDYWGQGTLVTVSS
VL: EIVMTQSPATLSVSPGERATLSCKASQDIGSNLNWLQQKPGQAPRRLIYAASVREPGIPARFSGSRSGSEYTLTISSLQSEDFAVYYCLQYASSPWTFGQGTKVEIKR
notes: humanized, hIgG1/kappa, parental antibody 19C16
B2 was tested, and the koff [6] was 6.7e-07 s⁻¹.
